B3: lamin 300 fragment, wild type (human lamin A/C residues 1–300), His tag cleaved (domain or fragment, UniProt P02545 1-300, looked up)
chain: METPSQRRATRSGAQASSTPLSPTRITRLQEKEDLQELNDRLAVYIDRVRSLETENAGLRLRITESEEVVSREVSGIKAAYEAELGDARKTLDSVAKERARLQLELSKVREEFKELKARNTKKEGDLIAAQARLKDLEALLNSKEAALSTALSEKRTLEGELHDLRGQVAKLEAALGEAKKQLQDEMLRRVDAENRLQTMKEELDFQKNIYSEELRETKRRHETRLVEIDNGKQREFESRLADALQELRAQHEDQVEQYKKELEKTYSAKLDNARQSAERNSNLVGAAHEELQQSRIRID
notes: lamin A/C, human, residues 1-300; Mostly a dimer by SEC-MALS; also called WT; lamin 1–300 fragment; source: E. coli BL21 (DE3), purified (Ni-NTA, TEV, HiTrap Q, SEC); not shown: His tag, N-terminal, cleaved
B5: lamin 300 fragment A146C mutant (human lamin A/C residues 1–300), His tag cleaved (domain or fragment, UniProt P02545 1-300, looked up)
chain: METPSQRRATRSGAQASSTPLSPTRITRLQEKEDLQELNDRLAVYIDRVRSLETENAGLRLRITESEEVVSREVSGIKAAYEAELGDARKTLDSVAKERARLQLELSKVREEFKELKARNTKKEGDLIAAQARLKDLEALLNSKECALSTALSEKRTLEGELHDLRGQVAKLEAALGEAKKQLQDEMLRRVDAENRLQTMKEELDFQKNIYSEELRETKRRHETRLVEIDNGKQREFESRLADALQELRAQHEDQVEQYKKELEKTYSAKLDNARQSAERNSNLVGAAHEELQQSRIRID
modifications: disulfide bond through Cys146 in the non-reduced protein
notes: lamin A/C, human, residues 1-300; Non-reduced: partly a disulfide-linked tetramer; with TCEP: dimer (A146C^R); also called lamin 300 A146C; A146C variant; source: E. coli BL21 (DE3), purified (Ni-NTA, TEV, HiTrap Q, SEC); not shown: His tag, N-terminal, cleaved

Series [1] concerns the molecule itself. The experiment in a line: cross-linking; sulfo-SMPB (0-250 μM) added to 20 μM lamin 300 and 286-400 R388C, 1 h, 20 mM HEPES pH 7.5, 50 mM NaCl, 1 mM EDTA; SDS-PAGE bands digested with chymotrypsin, MS/MS.
In series [2] the target is B3. The description is as above. The conditions noted are these: both partners purified.
The target in series [3] is B5. Put plainly: pull-down; lamin 300 A146C coupled to CNBr-activated Sepharose; fragments at 66 μM; 20 mM Tris-HCl pH 8.0, 150 mM NaCl, non-reducing; Tris-blocked resin as control; SDS-PAGE. The conditions noted are these: both partners purified.
Series [4] addresses T1, His-tagged lamin 300 fragment, wild type (human lamin A/C residues 1–300) (human, UniProt P02545 1-300).
T1 construct: lamin A/C, human, residues 1-300; The plasmid also encodes a TEV site between the tag and the lamin residues (pProEx-HTa); also called His-lamin; His-tagged wild-type lamin 300 fragment; source: E. coli BL21 (DE3), purified (Ni-NTA, HiTrap Q, SEC; no TEV treatment); not shown: His tag, N-terminal, kept
T1 sequence (looked up): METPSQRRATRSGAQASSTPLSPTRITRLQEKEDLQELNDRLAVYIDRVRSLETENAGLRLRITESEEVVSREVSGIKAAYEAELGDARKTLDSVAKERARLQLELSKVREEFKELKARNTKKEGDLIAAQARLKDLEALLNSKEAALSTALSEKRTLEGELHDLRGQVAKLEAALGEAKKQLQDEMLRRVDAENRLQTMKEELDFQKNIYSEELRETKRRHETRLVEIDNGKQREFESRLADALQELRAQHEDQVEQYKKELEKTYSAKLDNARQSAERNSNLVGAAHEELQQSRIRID
The experiment in a line: pull-down; His-tagged lamin 300 (wild type, Y45C, L59R) on Ni-NTA resin; lamin 250-400 as prey; 20 mM Tris-HCl pH 8.0 with 50 or 150 mM NaCl; SDS-PAGE. As to conditions: both partners purified.

Series [5] deals with the molecule itself. The experiment in a line: SEC-MALS; 2.5 mg/ml, Superdex 200 Increase 5/150 GL, non-reducing buffer Tris-HCl pH 8.0, 150 mM NaCl.
Series [6] addresses B5. Put plainly: pull-down; His-F3 on Ni-NTA resin as bait; tag-cleaved lamin 300 proteins as prey; 20 mM Tris-HCl pH 8.0 with 150 or 50 mM NaCl, room temperature 30 min, wash with 20 mM imidazole; 2 mM TCEP for reduced A146C; SDS-PAGE. As to conditions: both partners purified.
For series [7], the target named is B3. The description is as above. The conditions noted are these: both partners purified.
Series [8] concerns the target T1, His-tagged lamin 300 fragment, wild …. The experiment in a line: ITC; His-lamin 300 (20 μM) in the cell, His-250-400 (160 μM) in the syringe; PBS, 25 °C, 19 injections of 2 μL. As to conditions: both partners purified.
Series [9] concerns the target T2, His-tagged lamin 300 fragment L59R mutant (human, UniProt P02545 1-300, L59R).
T2 construct: lamin A/C, human, residues 1-300, with the dilated cardiomyopathy mutation L59R; source: E. coli BL21 (DE3), purified (Ni-NTA, HiTrap Q, SEC; no TEV treatment)
T2 sequence (looked up): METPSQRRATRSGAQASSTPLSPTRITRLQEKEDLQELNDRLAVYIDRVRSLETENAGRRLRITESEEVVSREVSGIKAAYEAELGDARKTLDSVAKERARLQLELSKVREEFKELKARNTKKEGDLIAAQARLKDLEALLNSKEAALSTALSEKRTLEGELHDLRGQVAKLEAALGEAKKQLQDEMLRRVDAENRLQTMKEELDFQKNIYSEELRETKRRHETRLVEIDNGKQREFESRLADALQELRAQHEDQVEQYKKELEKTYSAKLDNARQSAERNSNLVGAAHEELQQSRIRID
The series is described as above. As to conditions: both partners purified.

Series [10] deals with the molecule itself. The experiment in a line: crystal structure; SeMet-labelled lamin 1-300, His tag cleaved, 7 mg/mL; 0.1 M Tris-HCl pH 8.5, 0.9 M LiCl, 7% PEG 8000, 14 °C; SAD, 3.2 Å.

We go through 6 molecules from paper PMC6704074, “Structural basis for lamin assembly at the molecular level” (Nature Communications, 2019).

Several values for one entry are separate records, joined by “and”; a condition that tells them apart may be missing. Equal values may be shown once.

B1: lamin 286–400 R388C mutant (domain or fragment, human, UniProt P02545 286-400, looked up)
chain: GAAHEELQQSRIRIDSLSAQLSQLQKQLAAKEAKLRDLEDSLARERDTSRRLLAEKEREMAEMRARMQQQLDEYQELLDIKLALDMEIHAYRKLLEGEEERLCLSPSPTSQRSRG
notes: lamin A/C, human, residues 286-400; runs at 14 kDa on SDS-PAGE; Reduced with 2 mM DTT and desalted before cross-linking; also called coil 2 (286–400) R388C; coil 2 R388C; source: E. coli BL21 (DE3), purified
As to B1, the binding result in series [1] and in series [2] was “binds” throughout.

B2: lamin 250–400 fragment (F3), without His tag (domain or fragment, human, UniProt P02545 250-400, looked up)
chain: AQHEDQVEQYKKELEKTYSAKLDNARQSAERNSNLVGAAHEELQQSRIRIDSLSAQLSQLQKQLAAKEAKLRDLEDSLARERDTSRRLLAEKEREMAEMRARMQQQLDEYQELLDIKLALDMEIHAYRKLLEGEEERLRLSPSPTSQRSRG
notes: lamin A/C, human, residues 250-400 (coil 2, residues 240-385, without its N-terminal ten residues); not called His-tagged there, so by the common procedure the tag would be cleaved; also called coil 2 fragment; C-terminal part of coil 2; source: E. coli BL21 (DE3), purified (Ni-NTA, TEV, HiTrap Q, SEC)
Turning to B2, the binding result in series [3] and in [4] was “binds” in each case.

For B3, the “stoichiometry N” value in [5] was 2.

B4: His-F3 (His-tagged lamin A/C residues 250–400) (domain or fragment, human, UniProt P02545 250-400, looked up)
chain: AQHEDQVEQYKKELEKTYSAKLDNARQSAERNSNLVGAAHEELQQSRIRIDSLSAQLSQLQKQLAAKEAKLRDLEDSLARERDTSRRLLAEKEREMAEMRARMQQQLDEYQELLDIKLALDMEIHAYRKLLEGEEERLRLSPSPTSQRSRG
notes: lamin A/C, human, residues 250-400; The plasmid also encodes a TEV site between the tag and the lamin residues (pProEx-HTa); also called his-tagged 250–400 fragment; coil 2 fragment; source: E. coli BL21 (DE3), purified (Ni-NTA, HiTrap Q, SEC; no TEV treatment); not shown: His tag, N-terminal, kept
For the molecule B4, the binding result in [6], in series [7] and in series [8] was “binds” each time. The “fold higher binding affinity than the wild type (from KD values)” value in [9] is around 40 fold.

As for B5, in series [5], the “stoichiometry N” value was 4 and 2.

B6: selenomethionine-labelled lamin A/C fragment (residues 1–300), His tag cleaved (domain or fragment, human, UniProt P02545 1-300, looked up)
chain: METPSQRRATRSGAQASSTPLSPTRITRLQEKEDLQELNDRLAVYIDRVRSLETENAGLRLRITESEEVVSREVSGIKAAYEAELGDARKTLDSVAKERARLQLELSKVREEFKELKARNTKKEGDLIAAQARLKDLEALLNSKEAALSTALSEKRTLEGELHDLRGQVAKLEAALGEAKKQLQDEMLRRVDAENRLQTMKEELDFQKNIYSEELRETKRRHETRLVEIDNGKQREFESRLADALQELRAQHEDQVEQYKKELEKTYSAKLDNARQSAERNSNLVGAAHEELQQSRIRID
modifications: selenomethionine-labelled
notes: lamin A/C, human, residues 1-300 (head, coil 1a, L1, coil 1b, L12, first half of coil 2); Four protomers (chains A-D) in the asymmetric unit: two parallel coiled-coil dimers (A:B, C:D) packed anti-parallel; also called lamin 300 fragment; N-terminal half fragment of human lamin A/C; source: E. coli B834 (DE3), M9 medium with L-(+)-selenomethionine, purified (Ni-NTA, TEV, HiTrap Q, SEC); not …
B6: the binding result in series [10] is recorded as “binds”.
